From paper PMC10397247 come the findings set out here.

One assay concerns the target T1, 4H949-bH.
T1 chain: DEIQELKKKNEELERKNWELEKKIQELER
In words: two-hybrid library CCNG1.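 Also: natural log of median RNA to DNA barcode read ratio; higher means stronger binding.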

A further assay has as its target T2, 4H568-bH.
T2 chain: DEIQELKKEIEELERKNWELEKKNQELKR
In words: two-hybrid library CCNG1.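 Also: natural log of median RNA to DNA barcode read ratio; higher means stronger binding.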

Another assay concerns the target T3, 4H607-bH.
T3 chain: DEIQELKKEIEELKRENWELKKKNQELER
In words: two-hybrid library CCNG1.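 Also: natural log of median RNA to DNA barcode read ratio; higher means stronger binding.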

The target of another assay is T4, 4H687-bH.
T4 chain: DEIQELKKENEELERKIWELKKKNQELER
In words: two-hybrid library CCNG1.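 Also: natural log of median RNA to DNA barcode read ratio; higher means stronger binding.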

A further assay has as its target T5, 4H717-bH.
T5 chain: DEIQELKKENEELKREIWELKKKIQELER
In words: two-hybrid library CCNG1.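 Also: natural log of median RNA to DNA barcode read ratio; higher means stronger binding.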

Another assay concerns the target T6, 4H72-bH.
T6 chain: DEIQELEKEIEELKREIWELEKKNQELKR
In words: two-hybrid library CCNG1.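 Also: natural log of median RNA to DNA barcode read ratio; higher means stronger binding.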

The target of another assay is T7, 4H754-bH.
T7 chain: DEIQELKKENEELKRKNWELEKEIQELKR
In words: two-hybrid library CCNG1.

In a further assay the target is T8, 4H797-bH.
T8 chain: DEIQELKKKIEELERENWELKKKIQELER
In words: two-hybrid library CCNG1.

A further assay deals with T9, 4H883-bH.
T9 chain: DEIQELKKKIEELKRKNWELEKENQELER
In words: two-hybrid library CCNG1.

Another assay deals with T10, 4H908-bH.
T10 chain: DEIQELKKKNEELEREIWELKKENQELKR
In words: two-hybrid library CCNG1.

In a further assay the target is T11, 4H918-bH.
T11 chain: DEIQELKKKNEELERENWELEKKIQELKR
In words: two-hybrid library CCNG1.

Another assay has as its target T12, 4H953-bH.
T12 chain: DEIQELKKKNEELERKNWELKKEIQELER
In words: two-hybrid library CCNG1.

The target in the next assay is T13, 4H967-bH.
T13 chain: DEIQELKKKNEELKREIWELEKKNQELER
In words: two-hybrid library CCNG1.

In the next assay the target is T14, 4H3619-AA.
T14 chain: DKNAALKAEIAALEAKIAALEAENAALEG
In words: two-hybrid library CCmax.

The next assay concerns the target T15, 4H3629-AA.
T15 chain: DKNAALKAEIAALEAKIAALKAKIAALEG
In words: two-hybrid library CCmax. As to conditions: mean of both orientations.

The next assay has as its target T16, 4H3777-AA.
T16 chain: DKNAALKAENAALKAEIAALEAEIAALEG
In words: two-hybrid library CCmax. As to conditions: mean of both orientations.

In the next assay the target is T17, 4H380-AA.
T17 chain: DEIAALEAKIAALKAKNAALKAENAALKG
In words: two-hybrid library CCmax. The settings on record: mean of both orientations.

In the next assay the target is T18, 4H3915-AA.
T18 chain: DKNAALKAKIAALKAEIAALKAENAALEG
In words: two-hybrid library CCmax. As to conditions: mean of both orientations.

The target in another assay is T19, 4H3974-AA.
T19 chain: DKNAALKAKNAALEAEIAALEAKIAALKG
In words: two-hybrid library CCmax. The settings on record: mean of both orientations.

For the next assay, the target named is T20, 4H432-AA.
T20 chain: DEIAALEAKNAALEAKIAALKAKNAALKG
In words: two-hybrid library CCmax. The settings on record: mean of both orientations.

The next assay deals with T21, 4H446-AA.
T21 chain: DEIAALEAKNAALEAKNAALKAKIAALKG
In words: two-hybrid library CCmax. The settings on record: mean of both orientations.

For the next assay, the target named is T22, 4H63-AA.
T22 chain: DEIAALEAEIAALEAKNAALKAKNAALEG
In words: two-hybrid library CCmax. The settings on record: mean of both orientations.

The next assay concerns the target T23, 4H2865-AA.
T23 chain: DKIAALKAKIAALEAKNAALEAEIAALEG
In words: two-hybrid library CCmax.

The next assay has as its target T24, 4H3009-AA.
T24 chain: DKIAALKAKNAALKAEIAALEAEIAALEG
In words: two-hybrid library CCmax. As to conditions: mean of both orientations.

For a further assay, the target named is T25, 4H3016-AA.
T25 chain: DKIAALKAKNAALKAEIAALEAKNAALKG
In words: two-hybrid library CCmax. As to conditions: mean of both orientations.

In another assay the target is T26, 4H310-AA.
T26 chain: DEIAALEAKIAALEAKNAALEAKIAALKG
In words: two-hybrid library CCmax. The settings on record: mean of both orientations.

Another assay deals with T27, 4H3120-AA.
T27 chain: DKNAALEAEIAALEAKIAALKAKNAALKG
In words: two-hybrid library CCmax. As to conditions: mean of both orientations.

A further assay concerns the target T28, 4H3130-AA.
T28 chain: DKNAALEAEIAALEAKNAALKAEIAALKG
In words: two-hybrid library CCmax. The settings on record: mean of both orientations.

Another assay deals with T29, 4H3165-AA.
T29 chain: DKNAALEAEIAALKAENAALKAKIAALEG
In words: two-hybrid library CCmax. As to conditions: mean of both orientations.

Another assay has as its target T30, 4H3381-AA.
T30 chain: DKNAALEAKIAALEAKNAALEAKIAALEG
In words: two-hybrid library CCmax. As to conditions: mean of both orientations.

The target of the next assay is T31, 4H3395-AA.
T31 chain: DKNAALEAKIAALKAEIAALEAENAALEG
In words: two-hybrid library CCmax. As to conditions: mean of both orientations.

For a further assay, the target named is T32, 4H3410-AA.
T32 chain: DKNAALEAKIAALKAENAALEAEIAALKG
In words: two-hybrid library CCmax. The settings on record: mean of both orientations.

Another assay addresses T33, 4H3590-AA.
T33 chain: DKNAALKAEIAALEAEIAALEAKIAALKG
In words: two-hybrid library CCmax. As to conditions: mean of both orientations.

The next assay has as its target T34, 4H3697-AA.
T34 chain: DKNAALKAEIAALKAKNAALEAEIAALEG
In words: two-hybrid library CCmax. As to conditions: mean of both orientations.

Another assay addresses T35, 4H3753-AA.
T35 chain: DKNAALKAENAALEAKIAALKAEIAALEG
In words: two-hybrid library CCmax. As to conditions: mean of both orientations.

The target of another assay is T36, 4H3865-AA.
T36 chain: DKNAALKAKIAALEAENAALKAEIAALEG
In words: two-hybrid library CCmax. The settings on record: mean of both orientations.

Another assay deals with T37, 4H458-AA.
T37 chain: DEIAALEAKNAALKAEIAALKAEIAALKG
In words: two-hybrid library CCmax. As to conditions: mean of both orientations.

The next assay deals with T38, 4H485-AA.
T38 chain: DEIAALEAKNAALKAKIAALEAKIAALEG
In words: two-hybrid library CCmax. The settings on record: mean of both orientations.

The next assay deals with T39, 4H536-AA.
T39 chain: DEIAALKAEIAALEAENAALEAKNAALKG
In words: two-hybrid library CCmax. As to conditions: mean of both orientations.

The target in another assay is T40, 4H570-AA.
T40 chain: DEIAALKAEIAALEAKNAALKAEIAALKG
In words: two-hybrid library CCmax. As to conditions: mean of both orientations.

For the next assay, the target named is T41, 4H629-AA.
T41 chain: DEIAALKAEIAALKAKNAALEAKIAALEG
In words: two-hybrid library CCmax. The settings on record: mean of both orientations.

A further assay concerns the target T42, 4H710-AA.
T42 chain: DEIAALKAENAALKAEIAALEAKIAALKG
In words: two-hybrid library CCmax. The settings on record: mean of both orientations.

A further assay concerns the target T43, 4H745-AA.
T43 chain: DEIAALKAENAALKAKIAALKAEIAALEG
In words: two-hybrid library CCmax. The settings on record: mean of both orientations.

A further assay concerns the target T44, 4H797-AA.
T44 chain: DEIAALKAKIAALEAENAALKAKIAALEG
In words: two-hybrid library CCmax. The settings on record: mean of both orientations.

The target of another assay is T45, 4H850-AA.
T45 chain: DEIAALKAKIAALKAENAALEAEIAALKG
In words: two-hybrid library CCmax. The settings on record: mean of both orientations.

The target in the next assay is T46, 4H891-AA.
T46 chain: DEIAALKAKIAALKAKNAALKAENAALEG
In words: two-hybrid library CCmax. As to conditions: mean of both orientations.

A further assay has as its target T47, 4H909-AA.
T47 chain: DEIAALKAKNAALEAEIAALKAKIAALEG
In words: two-hybrid library CCmax. The settings on record: mean of both orientations.

The target of another assay is T48, 4H930-AA.
T48 chain: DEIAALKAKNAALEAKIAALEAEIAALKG
In words: two-hybrid library CCmax. As to conditions: mean of both orientations.

The next assay addresses T49, 4H94-AA.
T49 chain: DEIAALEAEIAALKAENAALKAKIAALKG
In words: two-hybrid library CCmax. The settings on record: mean of both orientations.

B1: 4H949-bH (peptide)
chain: DEIQELKKKNEELERKNWELEKKIQELER
Molecule B1 came in with an interaction score in the assay with 4H949-bH of 0.634.

B2: 4H568-bH (peptide)
chain: DEIQELKKEIEELERKNWELEKKNQELKR
As to B2, the interaction score was -1.25 with 4H568-bH; 0.0933 with 4H607-bH; -0.423 in the assay with 4H687-bH; 0.643 with 4H717-bH; -1.52 in the assay with 4H72-bH; 0.644 with 4H754-bH. In addition, the interaction score is -0.219 with 4H797-bH; 1 with 4H883-bH; 0.115 with 4H908-bH; -0.673 with 4H918-bH; -1.24 with 4H953-bH; 0.179 with 4H967-bH.

B3: 4H3619-AA (peptide)
chain: DKNAALKAEIAALEAKIAALEAENAALEG
For the molecule B3, the interaction score with 4H3619-AA was -1.28; with 4H3629-AA it was 0.411; in the assay with 4H3777-AA it was -1.36; with 4H380-AA, -0.137; with 4H3915-AA, -0.429; in the assay with 4H3974-AA, -0.337. Also, the interaction score with 4H432-AA is -0.708; with 4H446-AA it was -1.21; with 4H63-AA, -0.357.

B4: 4H2865-AA (peptide)
chain: DKIAALKAKIAALEAKNAALEAEIAALEG
As for B4, the interaction score with 4H2865-AA is 0.121; in the assay with 4H3009-AA, 2.01; in the assay with 4H3016-AA, -1.4; with 4H310-AA, 1.7; with 4H3120-AA, -0.983; in the assay with 4H3130-AA, -0.487. The interaction score is -1.47 in the assay with 4H3165-AA; -0.233 in the assay with 4H3381-AA; -1.43 in the assay with 4H3395-AA; -0.858 with 4H3410-AA; -0.177 with 4H3590-AA; -1.95 with 4H3697-AA. In addition, the interaction score in the assay with 4H3753-AA was -0.663; with 4H3865-AA, -1.3; with 4H458-AA, -0.6; with 4H485-AA, -1.28; with 4H536-AA, 1.01; in the assay with 4H570-AA, 1.01. Further, the interaction score in the assay with 4H629-AA was -0.872; with 4H710-AA, -0.988; with 4H745-AA it was 0.436; with 4H797-AA, -0.194; with 4H850-AA, 0.586; in the assay with 4H891-AA, -1.8. The interaction score in the assay with 4H909-AA is -0.808; with 4H930-AA it was -1.5; with 4H94-AA, 1.39.
